Values of other authors, collected in patent US20100086958A1, “NOVEL ENZYME” (priority 2008, published 2010).
Residue numbers refer to the chain shown, from its start. Names may count otherwise. Like-named read-outs stand apart in the source and are kept apart here.

B1: CboFDH: wild type FDH from Candida Boidinii, Seq ID No: 13 (protein, listed as Candida boidinii)
chain: MKIVLVLYDAGKHAADEEKLYGCTENKLGIANWLKDQGHELITTSDKEGGNSVLDQHIPDADIIITTPFHPAYITKERIDKAKKLKLVVVAGVGSDHIDLDYINQTGKKISVLEVTGSNVVSVAEHVVMTMLVLVRNFVPAHEQIINHDWEVAAIAKDAYDIEGKTIATIGAGRIGYRVLERLVPFNPKELLYYDYQALPKDAEEKVGARRVENIEELVAQADIVTVNAPLHAGTKGLINKELLSKFKKGAWLVNTARGAICVAEDVAAALESGQLRGYGGDVWFPQPAPKDHPWRDMRNKYGAGNAMTPHYSGTTLDAQTRYAQGTKNILESFFTGKFDYRPQDIILLNGEYVTKAYGKHDKK
B2: WT_17β-HSDHs: wild type human estrogenic 17β-hydroxysteroid dehydrogenase (protein, UniProt P14061 2-328, looked up)
17-beta-hydroxysteroid …: ARTVVLITGCSSGIGLHLAVRLASDPSQSFKVYATLRDLKTQGRLWEAARALACPPGSLETLQLDVRDSKSVAAARERVTEGRVDVLVCNAGLGLLGPLEALGEDAVASVLDVNVVGTVRMLQAFLPDMKRRGSGRVLVTGSVGGLMGLPFNDVYCASKFALEGLCESLAVLLLPFGVHLSLIECGPVHTAFMEKVLGSPEEVLDRTDIHTFHRFYQYLAHSKQVFREAAQNPEEVAEVFLTALRAPKPTLRYFTTERFLPLLRMRLDDPSGSNYVTAMHREVFGDVPAKAEAGAEAGGGAGPGAEDEAGRGAVGDPELGDPPAAPQ
B3: L36D 17β-HSDHs: L36D mutant of human estrogenic 17β-hydroxysteroid dehydrogenase (protein, UniProt P14061 2-328, looked up, variant L36D)
17-beta-hydroxysteroid …: B2 17-beta-hydroxysteroid … with L36D
B4: WT_PstPTDH: wild type phosphate dehydrogenase from Pseudomonas stutzeri (protein, UniProt O69054 1-336, looked up)
Phosphonate dehydrogenase: MLPKLVITHRVHDEILQLLAPHCELMTNQTDSTLTREEILRRCRDAQAMMAFMPDRVDADFLQACPELRVVGCALKGFDNFDVDACTARGVWLTFVPDLLTVPTAELAIGLAVGLGRHLRAADAFVRSGEFQGWQPQFYGTGLDNATVGILGMGAIGLAMADRLQGWGATLQYHEAKALDTQTEQRLGLRQVACSELFASSDFILLALPLNADTQHLVNAELLALVRPGALLVNPCRGSVVDEAAVLAALERGQLGGYAADVFEMEDWARADRPRLIDPALLAHPNTLFTPHIGSAVRAVRLEIERCAAQNIIQVLAGARPINAANRLPKAEPAAC
B5: E175A PstPTDH: E175A mutant of phosphate dehydrogenase from Pseudomonas stutzeri (protein, UniProt O69054 1-336, looked up, variant E175A)
Phosphonate dehydrogenase: B4 Phosphonate dehydrogenase with E175A
B6: A176R PstPTDH: A176R mutant of phosphate dehydrogenase from Pseudomonas stutzeri (protein, UniProt O69054 1-336, looked up, variant A176R)
Phosphonate dehydrogenase: B4 Phosphonate dehydrogenase with A176R
B7: E175A/A176R PstPTDH: E175A/A176R mutant of phosphate dehydrogenase from Pseudomonas stutzeri (protein, UniProt O69054 1-336, looked up, variant E175A A176R)
Phosphonate dehydrogenase: B4 Phosphonate dehydrogenase with E175A, A176R
B8: WT_SceADH: wild type ADH from Saccharomyces cerevisiae (protein, UniProt P00330 2-348, looked up)
Alcohol dehydrogenase 1: SIPETQKGVIFYESHGKLEYKDIPVPKPKANELLINVKYSGVCHTDLHAWHGDWPLPVKLPLVGGHEGAGVVVGMGENVKGWKIGDYAGIKWLNGSCMACEYCELGNESNCPHADLSGYTHDGSFQQYATADAVQAAHIPQGTDLAQVAPILCAGITVYKALKSANLMAGHWVAISGAAGGLGSLAVQYAKAMGYRVLGIDGGEGKEELFRSIGGEVFIDFTKEKDIVGAVLKATDGGAHGVINVSVSEAAIEASTRYVRANGTTVLVGMPAGAKCCSDVFNQVVKSISIVGSYVGNRADTREALDFFARGLVKSPIKVVGLSTLPEIYEKMEKGQIVGRYVVDTSK
B9: WT_BstGAPDH: wild type glyceraldehydes-3-phosphate dehydrogenase from Bacillus stearothermophilus (protein, UniProt P00362 2-335, looked up)
Glyceraldehyde-3-phosphate …: AVKVGINGFGRIGRNVFRAALKNPDIEVVAVNDLTDANTLAHLLKYDSVHGRLDAEVSVNGNNLVVNGKEIIVKAERDPENLAWGEIGVDIVVESTGRFTKREDAAKHLEAGAKKVIISAPAKNEDITIVMGVNQDKYDPKAHHVISNASCTTNCLAPFAKVLHEQFGIVRGMMTTVHSYTNDQRILDLPHKDLRRARAAAESIIPTTTGAAKAVALVLPELKGKLNGMAMRVPTPNVSVVDLVAELEKEVTVEEVNAALKAAAEGELKGILAYSEEPLVSRDYNGSTVSSTIDALSTMVIDGKMVKVVSWYDNETGYSHRVVDLAAYIASKGL
B10: WT_PstXDH: wild type xylitol dehydrogenase from Pichia stipitis (protein, UniProt P22144 1-363, looked up)
D-xylulose reductase: MTANPSLVLNKIDDISFETYDAPEISEPTDVLVQVKKTGICGSDIHFYAHGRIGNFVLTKPMVLGHESAGTVVQVGKGVTSLKVGDNVAIEPGIPSRFSDEYKSGHYNLCPHMAFAATPNSKEGEPNPPGTLCKYFKSPEDFLVKLPDHVSLELGALVEPLSVGVHASKLGSVAFGDYVAVFGAGPVGLLAAAVAKTFGAKGVIVVDIFDNKLKMAKDIGAATHTFNSKTGGSEELIKAFGGNVPNVVLECTGAEPCIKLGVDAIAPGGRFVQVGNAAGPVSFPITVFAMKELTLFGSFRYGFNDYKTAVGIFDTNYQNGRENAPIDFEQLITHRYKFKDAIEAYDLVRAGKGAVKCLIDGPE
B11: WT_DroADH: wild type ADH from Drosophila (protein, UniProt P00334 2-256, looked up)
Alcohol dehydrogenase: SFTLTNKNVIFVAGLGGIGLDTSKELLKRDLKNLVILDRIENPAAIAELKAINPKVTVTFYPYDVTVPIAETTKLLKTIFAQLKTVDVLINGAGILDDHQIERTIAVNYTGLVNTTTAILDFWDKRKGGPGGIICNIGSVTGFNAIYQVPVYSGTKAAVVNFTSSLAKLAPITGVTAYTVNPGITRTTLVHKFNSWLDVEPQVAEKLLAHPTQPSLACAENFVKAIELNQNGAIWKLDLGTLEAIQWTKHWDSGI
B12: A46R DroADH: A46R mutant of ADH from Drosophila (protein, UniProt P00334 2-256, looked up, variant A46R)
Alcohol dehydrogenase: B11 Alcohol dehydrogenase with A45R

Tests used:
[1] = unit = μmol formate oxidized per min; literature; cited from earlier work
[2] = literature, cited from earlier work; for Km: read-out: Km NADP^+
[3] = literature, cited from earlier work; for Km: read-out: Km NAD^+
[4] = ADHs (DroADH, SceADH), AlaDHs, GAPDH

Row | Molecule | kcat NADP^+ ([2]; PTDH) | Km ([2]; PTDH) | kcat NAD^+ ([3]; PTDH) | Km ([3]; PTDH) | kcat NAD^+ [3, 4] | Km [3, 4] | further results
1 | B1 |  |  |  |  |  |  | activity with NADP^+ [1]: 0.0013 U/mg; activity with NAD^+ [1]: 2.2 U/mg
2 | B2 |  |  |  |  |  |  | kcat NADP^+ ([2]; 17β-HSDHs): 4.2 ± 0.2 s⁻¹; kcat NAD^+ ([3]; 17β-HSDHs): 7.5 ± 0.1 s⁻¹; Km ([3]; 17β-HSDHs): 11.8 ± 0.8 µM
3 | B3 |  |  |  |  |  |  | kcat NADP^+ ([2]; 17β-HSDHs): 16.7 ± 2.2 s⁻¹; kcat NAD^+ ([3]; 17β-HSDHs): 13.9 ± 0.8 s⁻¹; Km ([3]; 17β-HSDHs): 83 ± 5 µM
4 | B4 | 1.41 ± 0.0083 s⁻¹ | 2510 ± 410 µM | 2.93 ± 0.14 s⁻¹ | 53 ± 9 µM |  |  | 
5 | B5 | 2.18 ± 0.0067 s⁻¹ | 144 ± 14 µM | 3.5 ± 0.005 s⁻¹ | 16 ± 0.8 µM |  |  | 
6 | B6 | 2.18 ± 0.0067 s⁻¹ | 77 ± 8.4 µM | 4.28 ± 0.0083 s⁻¹ | 60 ± 7 µM |  |  | 
7 | B7 | 1.9 ± 0.0083 s⁻¹ | 3.5 ± 0.5 µM | 3.94 ± 0.0083 s⁻¹ | 20 ± 1.3 µM |  |  | 
8 | B8 |  |  |  |  | 360 s⁻¹ | 160 µM | 
9 | B9 |  |  |  |  | 280 s⁻¹ | 150 µM | 
10 | B10 |  |  |  |  |  |  | kcat NADP^+ ([2]; ADHs (KlADH III), G6PDHs, XDHs): 1.83 ± 0.167 s⁻¹; kcat NAD^+ ([3]; ADHs (KlADH III), G6PDHs, XDHs): 17.5 ± 0.5 s⁻¹; Km ([3]; ADHs (KlADH III), G6PDHs, XDHs): 381 ± 30 µM
11 | B11 |  |  |  |  | 10.2 s⁻¹ | 48 ± 1 µM | kcat NADP^+ [2, 4]: 0.715 s⁻¹; Km [2, 4]: 3090 ± 700 µM
12 | B12 |  |  |  |  | 7.3 s⁻¹ | 57 ± 3 µM | kcat NADP^+ [2, 4]: 1.9 s⁻¹; Km [2, 4]: 1270 ± 100 µM
